Patent publication US5952463

Columns and labels:
Thermolysin [1] = target: Thermolysin
Chymotrypsin [2] = target: Chymotrypsin
Subtilisin [3] = target: Subtilisin
Trypsin [4] = target: Trypsin
Thermolysin [5] = target: Thermolysin; remark: listed apart in the source
Chymotrypsin [6] = target: Chymotrypsin; remark: listed apart in the source
Subtilisin [7] = target: Subtilisin; remark: listed apart in the source
Trypsin [8] = target: Trypsin; remark: listed apart in the source
[9] = target: purified secretion-type Kex2 proteinase (sKEX2 product, Saccharomyces yeast) (Saccharomyces yeast) (UniProt P13134); design: unit not given beside the values

Inhibition Ratio (%), casein Folin method (Thermolysin [1]): -5.5% | Inhibition Ratio (%), casein Folin method (Chymotrypsin [2]): -19% | Inhibition Ratio (%), casein Folin method (Subtilisin [3]): 87% | Inhibition Ratio (%), casein Folin method (Trypsin [4]): 2.4% | Inhibition Ratio (%), casein Folin method, enzyme at 1/10 molar ratio to 0.5 µg of Kexstatin (Pepsin): 0% | Inhibition Ratio (%), casein Folin method, enzyme at 1/10 molar ratio to 0.5 µg of Kexstatin (Thermolysin [5]): 8% | Inhibition Ratio (%), synthetic fluorescent substrate Suc-Ala-Ala-Pro-Phe-MCA, enzyme at 1/10 molar ratio to 0.5 µg of Kexstatin (Chymotrypsin [6]): 0% | Inhibition Ratio (%), synthetic fluorescent substrate Suc-Ala-Ala-Pro-Phe-MCA, enzyme at 1/10 molar ratio to 0.5 µg of Kexstatin (Subtilisin [7]): 99.5% | Inhibition Ratio (%), synthetic fluorescent substrate Bz-Arg-MCA, enzyme at 1/10 molar ratio to 0.5 µg of Kexstatin (Trypsin [8]): 49.2% | IC50 (amount of Kexstatin which inhibits the activity of 1 µg of Kex2 proteinase by 50%) (µg (per 1 µg of Kex2 proteinase)) [9]: 1.4
B1: Kexstatin (proteinase inhibitor purified from the culture fluid of Streptomyces platensis Q268) (protein)
chain: GLYAPTELVLTVGQGESRATATVQRAVTLSCMPGARGSHPNPLGACTQLRAVAGDFNAITAATSDRLCTKEWNPLVVTADGVWQGKRVSYSYTFANRCEMNIDSDTVFNF
